Measurements published in article PMC3760834.

Molecular target: GST-Cx46G143R loop fusion protein (intracellular loop domain of human Cx46 with the cataract mutation G143R) (human)
Assay: pull-down; GST, GST-Cx46 loop or GST-Cx46G143R loop on glutathione beads incubated with crude membrane proteins of HeLa cells expressing Cx46, rotating platform, 4°C overnight; eluted proteins blotted with anti-Cx46 and anti-GST

fold of Cx46 pulled down against the wild-type GST-Cx46 loop: > 2 fold
Substance: human connexin 46 (Cx46), wild type (from UniProt Q9Y6H8 1-435) (natural protein)
